Assay results from the DeepSol protein solubility set.

test: soluble on expression in E. coli; label from the status in PepcDB or PDB records

Sequence	soluble on expression in E. coli
MREWKSQDAWKQHSLRLCFGVWPGTEFLHRPRAVHRRSGVVCSQMQTEDSHPETPQVPKESLQEEKDSSPATDASFIQSQDGKTVFLDRRTERRIQRGFVLTERGPRSIWKPAGTSSQRNERVPRRAAARGGAGPPDTTPQLATVRVLVLGANHVAQRLAELLSSHSRVCGCYFVSETTDEAAIESMKKYAYALPLRSALNDDEVVRVAEWVLADYVFLVPTGETHDDGVSLKDKERLERTLAQNRVTFMDENLTGLLLENPSLIDALFRARDSLEA	not soluble
MSYYHHHHHHLESTSLYKKSSSTPPRGVTVVNNFDAKRYLGTWYEIARFDHRFERGLEKVTATYSLRDDGGLNVINKGYNPDRGMWQQSEGKAYFTGAPTRAALKVSFFGPFYGGYNVIALDREYRHALVCGPDRDYLWILSRTPTISDEVKQEMLAVATREGFDVSKFIWVQQPGS	soluble
MNKAQIEIYYCRQCNWMLRSAWLSQELLHTFSEEIEYVALHPDTGGRFEIFCNGVQIWERKQEGGFPEAKVLKQRVRDLIDPERDLGHVDRPSSTQSLEHHHHHH	soluble
MGSDKIHHHHHHMSIVLKAIRFHRETDLFTDLNFEFPTGALTVLTGDSGSGKSTLLSLIAGYAAMPYEGTILLNGHDDRNAAMQVKAQHVGMMFQNPDQQFTMRTLSGELSFALENLNLPVAEIQRRFAQAVALGETQALLDRDLSTLSGGEKQRAALTVLLAMDAPILLLDEPFASIDPTSRHLLIGKLGTLRDHGKTIVIAEHDLTDYADVADQLVALKNGELSRLPLATLTTLPTHFNLTQPRQATNKIFHLENVVCQQNHHILLQAPSWDFNDGITTLTGANGSGKSTLLRSMVQRHPYQGRMFLGQQRLRRRKRLYQTMTLAVQDAAKQFVTLTLADELAFGPALPAAVREKQQAALAYLGLAEKQTTSLYQLSEGQKKMVQLMTMLSLDLSFLLLDEPFSGLDDRACQYFAAWIKAKSATQAFLIVTHRLAPLAGISQQQVLLANHRLQVVQG	not soluble
MSLGSMSATPLQAGLKTLQLTEPFRIAHGTSTERQVLRLRWNGAVGEAPVVPYYKESAAVTLEWLQALDWNGSPAPKDGPRLGRLALDLLWHDAVGRDKRQTLGQMLHLNPAQTPPGCRSFSIPTDLDKFAEKVAQVSRQFQVLKLKTGSGNVEFDEAIVATARKAAPDAKLLVDANGGWTVEETAAILPKLVKYDLTLVEQPFHHDGGSESWRELKYLLPSHSIPLYADESAQGPDDVLTLAGLVDGVNVKLLKCGSIAEAQTMIRFARASGMGVLLGCMIESSVGVTAAAHLAPLADWIDLDGHLYVADDDYEGVSYDEQGRLHLRDLPGLGVTPREGHHHHHH	soluble
MTSSDSNVDPGLGIAVDLGTTTLAASLVDLSSGERLASAGSLNPQREFGADVVSRLDAACRSGEALQRMAALVREELYRLAARLLDSAGEARDRLRMVAVAGNPAMEHLLLGLPVVRLAYPPYRPLFSTSTHISAADLGWDLSGRVALFPLPGGFVGGDTVAFLFGVPDVCAPCPGPRLFLDMGTNGEMVLQCGDVLLGTSAAAGPAFEGGGLACGMAALPGAVNGIIRDGDRVRVTTIGGGQPLGICGSAVLDTVALLLEEGLLDSTGRLLPPEEIASPVGARMGTVGGEPAFILHRDAARTIYLSQGDIRQVQLAKGAIRAGMEVLCERARIRCEDIEEVVLTGSFGAVLSPRSLKFIGIFTEKMVQTTRFVREGALAGAERALTAPEGFEAVDRLARALRVIPLSGTPAFEKHFLKHIDFPSRLEHHHHHH	soluble
RPHVVKVYSEDGACRSVEVAAGATARHVCEMLVQRAHALSDETWGLVECHPHLALERGLEDHESVVEVQAAWPVGGDSRFVFRKNFA	soluble
MKTIFSGIQPSGVITIGNYIGALRQFVELQHEYNCYFCIVDQHAITVWQDPHELRQNIRRLAALYLAVGIDPTQATLFIQSEVPAHAQAAWMLQCIVYIGELERMTQFKEKSAGKEAVSAGLLTYPPLMAADILLYNTDIVPVGEDQKQHIELTRDLAERFNKRYGELFTIPEARIPKVGARIMSLVDPTKKMSKSDPNPKAYITLLDDAKTIEKKIKSAVTDSEGTIRYDKEAKPGISNLLNIYSTLSGQSIEELERQYEGKGYGVFKADLAQVVIETLRPIQERYHHWMESEELDRVLDEGAEKANRVASEMVRKMEQAMGLGRRR	soluble
MGSDKIHHHHHHMATLSRLFIHPVKSMRGIGLTHALADISGLAFDRIFMVTEPDGTFITARQFPQMVRFTPSPLHDGLHLTAPDGSSALVRFTDFTPQDAPTEVWGNHFTARVAPTAINQWLSGFFSRDVQLRWVGPQLTRRVKRHNAVPLGFADGYPYLLTNEASLRDLQQRCPAGVQMEQFRPNLVVSGVAAWEEDSWKVLRIGDVIFDVVKPCSRCIFTTVSPEKGQKHPSGEPLATLQAFRTALDNGDVDFGQNLIARNSGVIRVGDEVEILATAPAKAYGATTVDNSVTPEKHPDASVTIDWQGQTFCGNNQQVLLEQLENQGIRIPYSCRAGICGCCRIRLLEGEVSPLKKSAMGDDGTILSCSCVPKTALRLEN	not soluble
MGHHHHHHSHMENKGVVALYHYFYGPALIPYFSHTHNPQRSPDFSERQRRREITLTVDGFVPPSSTEDLGDGFYSYAWTNQQVINPGEYLVCHLEGRDINVINGGFTPRDTAPLYAVQAFQDEETNGSLSFIILCKPKEPYRFI	not soluble
MGSDKIHHHHHHMTNVGRPIETHAITVGQGSDARSIAALVRAPAQDERPTCIWLGGYRSDMTGTKALEMDDLAASLGVGAIRFDYSGHGASGGAFRDGTISRWLEEALAVLDHFKPEKAILVGSSMGGWIALRLIQELKARHDNPTQVSGMVLIAPAPDFTSDLIEPLLGDRERAELAENGYFEEVSEYSPEPNIFTRALMEDGRANRVMAGMIDTGCPVHILQGMADPDVPYQHALKLVEHLPADDVVLTLVRDGDHRLSRPQDIDRMRNAIRAMIEPRP	not soluble
MSLKKITMIQTQKKVGRFNIYINNKYAFPVSESILIKYRLHKGQELDENLIEEIKLADDISKGYNAALNYLSYQLRTRKEVEDKLRSLDIHEDYISEIINKLIDLDLINDKNYAESYVRTMMNTSDKGPKVIKLNLSKKGIDDNIAEDALILYTDKLQVEKGVTLAEKLANRYSHDSYRNKQNKIKQSLLTKGFSYDIIDTIIQELDLIFDDEGHHHHHH	soluble
MDCWISTDYQSRTGNMAYPCTNRKTADSYYLNRSYQLDRIAVLLFLRQGTNAAMAGYWSSKILATSESNIYMNIILNMGEYSKSQ	not soluble
MTRPHQPRIDLNHGFLRFIRRNQVDRDEYNRVHEERKSEIRERIGSSDSSQDGEEKAQSNVYVPPHLRRQKKENEEKFSALKASRSQSQSDTGSEEGEGASGGGEASCPIQQKQKAFDENVRRQVRRRIERTHPTVDDICIVLANYSLQEAASKNSENSNEDLFELVLTLKSGEQKTIGVPRNTQAARLAKSLSREHHFSDSQCRNLRIFIEEQLELRFAREKSTATSSDASIPGSPTSSSESSIIEFSA	not soluble
MADSTKAGLKKPAFTKVDQLRPGTSGHNVNVKIVSTKMVLQKGRADGPQARQLRISECIVGDETGVIVFTARNDQVDLMKEGSTVTLRNAKIDMYKGSMRLAVDKWGRVEVTEPASFKVKEDTNMSLIEYELVNVVE	soluble
EHGPVTFVPDTPIESRARLSLPKQLVLRQSIVGAEVGVWTGETIPVRTCFGPLIGQQSHSMEVAEWTDKAVNHIWKIYHNGVLEFCIITTDENECNWMMFVRKARNREEQNLVAYPHDGKIFFCTSQDIPPENELLFYYSRDYAQQIGVPE	soluble
MPSLFKRSLLPKLRSFPLAAEAFTTLTGAAQFRRTLLEQIAQARRRIYIVALYLQQDEAGQEILDALHAAKAARPELEVVVVVDWLRAQRGLIGAGKQPGNSAWYQQMTRTHASEVPIYGVPVQTRELFGVLHLKGFIIDDCVLYSGASLNNVYLHKFDKYRFDRYHLLHNQALADSMHHLVQHGLVESRAVHRLDLPNLPTTRSLRNDIGDLRSRLKHATYDTTAGGLDKSGLSVSPLLGVGKGNPLNRVICELIAGAQRQLTICTPYFNLPLPVTREINRALERGVKIDIIVGDKTANDFYIPPSEPFKVIAALPYLYEISLRRFAKRHQKVIDNGQLNLHLWRDGDNTYHLKGMWVDERYTLLTGNNLNPRAFRLDLENALLLDDPKGELLQARNAEQAEIYRHTRRIEHFQYLDSLVDYPEAVGKFLRRVSRVRIERLLYRMLLEHHHHHH	not soluble
MSEKKSELVGRHKRVAYMNTDATGSSPKFERMTNFTTMTNGKNPKEYSRQYVDEIAERADVVGYAPAIEYSFDRYTNNPVHEKIATIHDGEKLGDDAHVEVVVVDFFKKSDKGDKCYATKRTYAVIPDSDGDGTDALVYSGSLKSVSDIEEGYVTETDFTSKTVTYAKGDYAATELEHHHHHH	soluble
MIDNLIKKEFLAHKEALEKSLEGLQEALKQSVHLLIETLENQGKILICGNGGSASDAQHFAAELTGRYKLERKGLSAISLNTDISALTAIANDYGYEEVFARQVEALGVKNDVLIGISTSGNSKNVLKAYEKAKDLEMKTLSLAGRDGGKMKPLSDMALIVPSDDTPRIQEMHILMIHILCDCIERHFAHKN	not soluble
GMDKLVKYQELVKKLLTNYASDDVSDQDVEVQLILDTERNHYQWMNVGWQGLNRIYRCVIHFDIKDGKIWLQQNLTDRNPAEELVMMGVPREDIVLGLQAPYKRQYTDYGVA	soluble
MGHHHHHHSHMSLTTSHFIPFPREMVWDWHTRKGAVARLTPPFIPLNPITQAERLADGTTIFSLPAGLKWVARHDLSGFLNGSRFTDVCLTAPVKALANWRHVHNFVDQDGGTLITDSVSTRLPASTLTGMFAYRQTQLIEDLKF	not soluble
GPGSMPPKNAVKRNQKSSKQRDNFDEAAIDALIMAIEGKAKKGTTKSQLKQKEDKSLSRANGQSYVLSEQMRNALLAQMQQPTAQEEQYVNVPVPLTGEEKGWQEVAPNRYIRYEQFGGSDAEMNFIVNLFTAELTEPYSSFTYQYFVFGWPDLCITAFGVESETKPDNSVVGEKVGAVVSRVTRKGAGMPLRGYVAMFAVVPKFRGYRLGSRLVSLTVELMRAKGCDEVYLETPTSNVRALGLYLNLGFAKTKYLPRYYLDHSDARASEAVAEGCHPKVCPRDCFHGWCGEGVAGTLRVCLE	soluble
MLNQKIQNPNPDELMIEVDLCYELDPYELKLDEMIEAEPEPEMIEGLPASDALTPADRYLELFEHVQSAKIFPDSKTFPDCAPKMDPLDILIRYRKVRRHRDFDLRKFVENHFWLPEVYSSEYVSDPQNSLKEHIDQLWPVLTREPQDHIPWSSLLALPQSYIVPGGRFSETYYWDSYFTMLGLAESGREDLLKCMADNFAWMIENYGHIPNGNRTYYLSRSQPPVFALMVELFEEDGVRGARRYLDHLKMEYAFWMDGAESLIPNQAYRHVVRMPDGSLLNRYWDDRDTPRDESWLEDVETAKHSGRPPNEVYRDLRAGAASGWDYSSRWLRDTGRLASIRTTQFIPIDLNAFLFKLESAIANISALKGEKETEALFRQKASARRDAVNRYLWDDENGIYRDYDWRREQLALFSAAAIVPLYVGMANHEQADRLANAVRSRLLTPGGILASEYETGEQWDKPNGWAPLQWMAIQGFKMYGDDLLGDEIARSWLKTVNQFYLEQHKLIEKYHIADGVPREGGGGEYPLQDGFGWTNGVVRRLIGLYGEPLEHHHHHH	not soluble
MKLNDPLVESFEFRGEIYPIDLSFNKVLDVFDVIDDDFLNEAEKCFLCLDILLDRTDLPFTYAVDLWVYIKTNFIDAERPEKPQLDIKGNPMPVVKEKEDNKKVIDLSLDAEFIYASFRQAYQINLLKEQNRLSWIEFKALLNALPDDTVMQRIIAIRQWEDDGEGSKKYRDNMRKLKAKYSLDEREEEDDGS	not soluble
